Measurements from patent US20090028851A1 (MAXPLANCK GESELLSCHAFT ZUR F RDERUNG DER WISSENSCH, published 2009).
Where no end group is shown, it is not given here.

Columns and labels:
[1] = biological target: Eag1 ion channel expressed in cells (Eag1 overexpressing CHO K1 cells; Eag1-expressing oocytes; transfected HEK293 cells) (UniProt O95259); experiment: cell-based or functional assay
[2] = biological target: T1, SPOT peptide 23, GSGSGKWEGGPSK; experiment: SPOT peptide membrane, ECL
T1 construct: also called spot 23
T1 peptide: GSGSGKWEGGPSK

[3] = biological target: T2, SPOT peptide 22, FNGSGSGKWEGGP; experiment: SPOT peptide membrane, ECL
T2 construct: also called spot 22
T2 peptide: FNGSGSGKWEGGP

[4] = biological target: T3, SPOT peptide 24, GSGKWEGGPSKNS; experiment: SPOT peptide membrane, ECL
T3 construct: also called spot 24
T3 peptide: GSGKWEGGPSKNS

[5] = biological target: T4, SPOT peptide 21, YQFNGSGSGKWEG; experiment: SPOT peptide membrane, ECL
T4 construct: also called spot 21
T4 peptide: YQFNGSGSGKWEG

[6] = biological target: T5, SPOT peptide 7, DYEIFDEDTKTIR (also: covalently bound to a cellulose SPOT membrane); experiment: SPOT peptide membrane, ECL
T5 construct: also called spot 7
T5 peptide: DYEIFDEDTKTIR

[7] = biological target: T6, SPOT peptide 5, SGMGDYEIFDEDT (also: covalently bound to a cellulose SPOT membrane); experiment: SPOT peptide membrane, ECL
T6 construct: also called spot 5
T6 peptide: SGMGDYEIFDEDT

[8] = biological target: T7, SPOT peptide 4, HSSGMGDYEIFDE (also: covalently bound to cellulose SPOT membrane); experiment: SPOT peptide membrane, ECL
T7 construct: also called spot 4
T7 peptide: HSSGMGDYEIFDE

[9] = biological target: T8, SPOT peptide 3, HHHSSGMGDYEIF (also: covalently bound to cellulose SPOT membrane); experiment: SPOT peptide membrane, ECL
T8 construct: holds residues of the immunogen's His tag; also called spot 3
T8 peptide: HHHSSGMGDYEIF

[10] = biological target: T9, SPOT peptide 6, MGDYEIFDEDTKT (also: covalently bound to a cellulose SPOT membrane); experiment: SPOT peptide membrane, ECL
T9 construct: also called spot 6
T9 peptide: MGDYEIFDEDTKT

[11] = biological target: T10, SPOT peptide 8, EIFDEDTKTIRNN; experiment: SPOT peptide membrane, ECL
T10 construct: also called spot 8
T10 peptide: EIFDEDTKTIRNN

[12] = biological target: T11, rat Eag1 (rat brain sections, hippocampus and cerebellum) (rat, UniProt Q63472 1-962); experiment: immunohistochemistry on rat brain sections (hippocampus, cerebellum)
T11 construct: whole, on cells; Native protein in fixed tissue sections (immunohistochemistry)
T11 sequence (looked up): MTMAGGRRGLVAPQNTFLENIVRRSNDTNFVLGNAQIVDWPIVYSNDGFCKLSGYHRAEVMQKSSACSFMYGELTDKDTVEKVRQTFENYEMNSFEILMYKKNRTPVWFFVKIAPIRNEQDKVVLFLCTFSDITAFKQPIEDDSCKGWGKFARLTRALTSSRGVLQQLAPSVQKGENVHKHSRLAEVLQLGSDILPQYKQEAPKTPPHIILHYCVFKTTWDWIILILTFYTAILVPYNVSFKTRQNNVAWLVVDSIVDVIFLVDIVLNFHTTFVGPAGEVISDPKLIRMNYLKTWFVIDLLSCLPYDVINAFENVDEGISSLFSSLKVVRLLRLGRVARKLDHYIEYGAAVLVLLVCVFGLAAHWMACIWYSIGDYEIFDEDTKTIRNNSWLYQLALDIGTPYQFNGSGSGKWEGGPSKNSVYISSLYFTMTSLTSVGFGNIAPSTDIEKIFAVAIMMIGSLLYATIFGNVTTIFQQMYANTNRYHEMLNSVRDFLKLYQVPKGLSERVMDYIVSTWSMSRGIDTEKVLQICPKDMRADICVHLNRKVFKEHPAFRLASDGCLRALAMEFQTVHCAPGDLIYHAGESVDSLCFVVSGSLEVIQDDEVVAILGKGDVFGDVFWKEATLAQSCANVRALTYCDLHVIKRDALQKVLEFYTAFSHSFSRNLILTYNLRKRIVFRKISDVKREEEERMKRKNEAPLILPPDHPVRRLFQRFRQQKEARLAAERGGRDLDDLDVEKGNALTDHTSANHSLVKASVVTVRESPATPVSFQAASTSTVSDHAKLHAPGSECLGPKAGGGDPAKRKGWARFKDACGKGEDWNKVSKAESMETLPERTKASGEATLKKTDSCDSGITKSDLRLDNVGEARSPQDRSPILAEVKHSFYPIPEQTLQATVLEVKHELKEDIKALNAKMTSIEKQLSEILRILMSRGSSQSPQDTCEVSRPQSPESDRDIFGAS

B1: mouse monoclonal anti-Eag1 antibody ImAb3 (antibody, mouse IgG2b, kappa, V domains shown)
VH: EVKLVESGGGLVQPGGSLRLSCATSGFTFTDYYMSWVRQPPGKALEWLGFIRNKATGYTTEYSASVKGRFTISRDNSQSILYLQMNTLRAEDSATYYCARDFGSRWYFDVWGAGTTVTVSS
VL: DIVMSQSPSSLAVSAGEKVTMSCKSSQSLLNSRTRKNYLAWYQQKPGQSPKLLIYWASTRESGVPDRFTGSGSGTDFTLTISSVQAEDLAVYYCKQSYDLRTFGGGTKLEIKR
notes: Murine IgG2b / kappa
In the case of B1, the current inhibition, whole cell patch clamp on transfected HEK293 cells, 300 nM antibody [1] is reported as 35%, the binding result [2] is reported as “binds” and the binding result [3] is reported as “binds”. B1: binds [4]; binds [5].

B2: mouse monoclonal anti-Eag1 antibody ImAb4 (antibody, mouse IgG2b, kappa, V domains shown)
VH: DVQLQESGPGLVKPSQSLSLTCTVTGYSITSDYAWNWIRQFPGNKLEWMGYISYSGSTIYNPSLKSRISITRDTSKNQFFLQLNSVTTEDTATYYCARFGNYGNTLNYWGQGTSVTVSS
VL: DVVMTQTPLSLPVSLGDQASISCRSSQSLVHSNGNTYLHWYLQKPGQSPKLLIYKVSNRFSGVPDRFSGSGSGTDFTLKISRVEAEDLGVYFCSQSTHVPPTFGGGTKLEIKR
notes: Murine IgG2b / kappa
B2: binds [6]; binds [7]; binds [8]. B2: binds [9]; binds [10]; binds [11]. B2: binds [12].
